Source: US8465945B2, “Method for production and use of mite group 1 proteins” (Merck Patent GmbH, priority 1999, dated 2013)

Assays:
[1] = system: IgE from pooled mite-allergic human sera; test: Monoclonal Capture ELISA (Example 8B, Table 7); assay type: binding
Experimental: Assays were carried out as follows. A microtiter plate as described in Example 5 was coated overnight at 4° C. with 100 ng/well of anti-Der f 1 protein monoclonal antibody 6A8, denoted herein as anti-Der f 1 MAb 6A8, provided by Dr. Martin Chapman. The plate was washed in the manner described above. The following proteins were then added to wells, having been diluted in Assay Buffer in a 2-fold dilution series, from 0.75 to 50 ng/well: Heska native Derf1, P. pastoris-expressed PDerf1303b, and E. coli-expressed PDerf1303c. After incubation for 1 hour at room temperature, plates were washed as described in Example 5. Then 100 μl per well of a 1:1000 dilution in Assay Buffer of biotinylated anti-Der f 1 monoclonal antibody 4C1, also denoted anti-Der f 1 MAb 4C1, provided by Dr. Martin Chapman, was added for 1 hour at room temperature. Plates were washed, streptavidin-HRP conjugate was added, and plates were developed as described in Example 5.
B. The Der f 1 proteins described in Example 8B were reacted as described in Example 6 with a pool of serum samples collected from 16 mite-allergic human patients.

[2] = system: IgE from mite-allergic or normal human sera; test: ELISA, binding of IgE from human sera to coated Der f 1 proteins or mite extracts, detected with FcεR1α-biotin
[3] = system: IgE from mite-allergic dog sera; test: ELISA, binding of IgE from dog sera to coated Der f 1 proteins or mite extracts, detected with FcεR1α-biotin
Experimental: Native or recombinant Der f 1 proteins in 100 μl CBC buffer (50 mM sodium carbonate, pH 9.6) were coated onto wells (100 ng per well) of Immulon II microtiter plates (available from Dynex Technologies, Chantilly, Va.) by incubation at 4° C., covered, overnight. Excess fluid was removed and wells were blocked with 200 μl Assay Buffer (4% fetal calf serum (available from Summit Laboratories, Fort Collins, Colo.) in phosphate buffered saline (PBS, recipe in Sambrook, ibid.), plus 0.05% Tween-20 (available from Sigma, St. Louis, Mo.)) for one hour at room temperature. Plates were then washed for 4 cycles on an automatic plate washer (Ultrawash, available from Dynatech Laboratories) using PBS with 0.05% Tween-20. […] Control wells were treated identically except that no serum was added. Plates were then washed as described above. Biotinylated human IgE receptor alpha chain (FcεR1α-biotin) (100 μl of 1.3 ng/ml) prepared as described in U.S. Pat. No. 5,945,294, ibid., was added and incubated for one hour at room temperature. After this incubation, plates were washed as described above. Streptavidin-horseradish peroxidase conjugate (0.5 mg/ml, available from KPL Labs, Gaithersburg, Md.) was added at a 1:5000 dilution in Assay Buffer for one hour at room temperature, after which plates were washed as described above. TMB Peroxidase substrate system, 2 part (available from KPL Labs, #0-76-00), added at 100 μl per well, was used according to the manufacturer's directions. The color reaction was allowed to proceed until good color development was reached (about 10-15 min); then the reaction was stopped with 100 μl per well of 1 M phosphoric acid. Bound IgE was determined by measuring absorbance (Optical Density, or OD) at 450 nm (nanometers) using an ELISA plate reader (such as Spectramax”, Molecular Devices, Sunnyvale, Calif.). Background OD readings in the control wells were subtracted from all numbers. Results are reported in Tables 1, 2 and 3 as OD multiplied by 1000. OD numbers greater than 100 are considered to be positive for a reaction with IgE. P. pastoris-expressed proteins are denoted in the Tables as Pichia expressed proteins.

B1: PDerf1303b: Recombinant Der f 1 expressed by P. pastoris HCY215 from nDerf1909b (pro-form, SEQ ID NO:29); actually secreted as mature form (protein, listed as Dermatophagoides farinae)
chain: RPASIKTFEEFKKAFNKNYATVEEEEVARKNFLESLKYVEANKGAINHLSDLSLDEFKNRYLMSAEAFEQLKTQFDLNAETSACRINSVNVPSELDLRSLRTVTPIRMQGGCGSCWAFSGVAATESAYLAYRNTSLDLSEQELVDCASQHGCHGDTIPRGIEYIQQNGVVEERSYPYVAREQRCRRPNSQHYGISNYCQIYPPDVKQIREALTQTHTAIAVIIGIKDLRAFQHYDGRTIIQHDNGYQPNYHAVNIVGYGSTQGDDYWIVRNSWDTTWGDSGYGYFQAGNNLMMIEQYPYVVIM
OD, Monoclonal Capture ELISA ([1]; 0.39 ng protein per well): 434 OD
OD, Monoclonal Capture ELISA ([1]; 0.78 ng protein per well): 871 OD
OD, Monoclonal Capture ELISA ([1]; 1.55 ng protein per well): 1399 OD
OD, Monoclonal Capture ELISA ([1]; 3.1 ng protein per well): 2103 OD
OD, Monoclonal Capture ELISA ([1]; 6.25 ng protein per well): 2463 OD
OD, Monoclonal Capture ELISA ([1]; 12.5 ng protein per well): 2388 OD
OD, Monoclonal Capture ELISA ([1]; 25 ng protein per well): 2389 OD
OD, bound IgE ([2]; Assay Number 1, serum human 1916): 11 OD multiplied by 1000
OD, bound IgE ([2]; Assay Number 1, serum human3848): 1192 OD multiplied by 1000
OD, bound IgE ([2]; Assay Number 1, serum human 3958): 2244 OD multiplied by 1000
OD, bound IgE ([2]; Assay Number 1, serum human 3960): 646 OD multiplied by 1000
OD, bound IgE ([2]; Assay Number 1, serum human 3961): 433 OD multiplied by 1000
OD, bound IgE ([2]; Assay Number 1, serum human 3987): 1377 OD multiplied by 1000
OD, bound IgE ([2]; Assay Number 1, serum human 4289): 182 OD multiplied by 1000
OD, bound IgE ([2]; Assay Number 1, serum human 4467): 694 OD multiplied by 1000
OD, bound IgE ([2]; Assay Number 1, serum human 5207): 2153 OD multiplied by 1000
OD, bound IgE ([2]; Assay Number 1, serum human pool): 1547 OD multiplied by 1000
OD, bound IgE ([2]; Assay Number 2, serum Heska human B): 2 OD multiplied by 1000
OD, bound IgE ([2]; Assay Number 2, serum Heska human C): 4 OD multiplied by 1000
OD, bound IgE ([2]; Assay Number 2, serum Heska human D): 0 OD multiplied by 1000
OD, bound IgE ([2]; Assay Number 2, serum Heska human E): 1 OD multiplied by 1000
OD, bound IgE ([2]; Assay Number 2, serum Heska human F): 0 OD multiplied by 1000
OD, bound IgE ([2]; Assay Number 2, serum Heska human G): 0 OD multiplied by 1000
OD, bound IgE ([2]; Assay Number 2, serum Heska human H): 0 OD multiplied by 1000
OD, bound IgE ([2]; Assay Number 2, serum Heska human I): 4 OD multiplied by 1000
OD, bound IgE ([2]; Assay Number 2, serum Heska human J): 0 OD multiplied by 1000
OD, bound IgE ([2]; Assay Number 2, serum Heska human K): 0 OD multiplied by 1000
OD, bound IgE ([2]; Assay Number 2, serum Heska human L): 0 OD multiplied by 1000
OD, bound IgE ([2]; Assay Number 2, serum Heska human M): 0 OD multiplied by 1000
OD, bound IgE ([2]; Assay Number 2, serum Heska human N): 370 OD multiplied by 1000
OD, bound IgE ([2]; Assay Number 2, serum Heska human O): 0 OD multiplied by 1000
OD, bound IgE ([2]; Assay Number 2, serum Heska human P): 0 OD multiplied by 1000
OD, bound IgE ([2]; Assay Number 2, serum Heska human Q): 0 OD multiplied by 1000
OD, bound IgE ([2]; Assay Number 2, serum Heska human R): 0 OD multiplied by 1000
OD, bound IgE ([2]; Assay Number 2, serum human 1916): 15 OD multiplied by 1000
OD, bound IgE ([2]; Assay Number 2, serum human 3848): 904 OD multiplied by 1000
OD, bound IgE ([2]; Assay Number 2, serum human 3958): 2369 OD multiplied by 1000
OD, bound IgE ([2]; Assay Number 2, serum human 3960): 1046 OD multiplied by 1000
OD, bound IgE ([2]; Assay Number 2, serum human 3961): 709 OD multiplied by 1000
OD, bound IgE ([2]; Assay Number 2, serum human 3987): 2457 OD multiplied by 1000
OD, bound IgE ([2]; Assay Number 2, serum human 4289): 160 OD multiplied by 1000
OD, bound IgE ([2]; Assay Number 2, serum human 4467): 660 OD multiplied by 1000
OD, bound IgE ([2]; Assay Number 2, serum human 5207): 1304 OD multiplied by 1000
OD, bound IgE ([2]; Assay Number 2, serum human pool): 1551 OD multiplied by 1000
reactivity: share of human serum samples reactive to native Der f 1 proteins that are also reactive to the recombinant protein ([2]; Table 1, 9 human samples (8 sera and pool), OD numbers greater than 100 positive): 100%
reactivity: share of human serum samples reactive to native Der f 1 proteins that are also reactive to the recombinant protein ([2]; Table 2, 10 human serum samples): 100%
OD, bound IgE ([2]; Table 3, sera 429, PDerf1303b preparation number A166-26, PDerf1223b preparation 1000-7): 104 OD multiplied by 1000
OD, bound IgE ([2]; Table 3, sera 1916, PDerf1303b preparation number A166-26, PDerf1223b preparation 1000-7): 0 OD multiplied by 1000
OD, bound IgE ([2]; Table 3, sera 3848, PDerf1303b preparation number A166-26, PDerf1223b preparation 1000-7): 457 OD multiplied by 1000
OD, bound IgE ([2]; Table 3, sera 3958, PDerf1303b preparation number A166-26, PDerf1223b preparation 1000-7): 2616 OD multiplied by 1000
OD, bound IgE ([2]; Table 3, sera 3960, PDerf1303b preparation number A166-26, PDerf1223b preparation 1000-7): 1420 OD multiplied by 1000
OD, bound IgE ([2]; Table 3, sera 3961, PDerf1303b preparation number A166-26, PDerf1223b preparation 1000-7): 744 OD multiplied by 1000
OD, bound IgE ([2]; Table 3, sera 3987, PDerf1303b preparation number A166-26, PDerf1223b preparation 1000-7): 2588 OD multiplied by 1000
OD, bound IgE ([2]; Table 3, sera 4467, PDerf1303b preparation number A166-26, PDerf1223b preparation 1000-7): 780 OD multiplied by 1000
OD, bound IgE ([2]; Table 3, sera 5207, PDerf1303b preparation number A166-26, PDerf1223b preparation 1000-7): 1887 OD multiplied by 1000
OD, bound IgE ([2]; Table 3, sera human pool, PDerf1303b preparation number A166-26, PDerf1223b preparation 1000-7): 1226 OD multiplied by 1000
OD, bound IgE ([2]; Table 6, pool of sera from 16 mite-allergic human patients, 6.2 ng protein per well): 53 OD
OD, bound IgE ([2]; Table 6, pool of sera from 16 mite-allergic human patients, 12.5 ng protein per well): 178 OD
OD, bound IgE ([2]; Table 6, pool of sera from 16 mite-allergic human patients, 25 ng protein per well): 240 OD
OD, bound IgE ([2]; Table 6, pool of sera from 16 mite-allergic human patients, 50 ng protein per well): 293 OD
OD, bound IgE ([2]; Table 6, pool of sera from 16 mite-allergic human patients, 100 ng protein per well): 354 OD
OD, bound IgE ([2]; Table 6, pool of sera from 16 mite-allergic human patients, 200 ng protein per well): 484 OD
OD, bound IgE ([3]; Assay Number 1, serum dog pool): 364 OD multiplied by 1000
OD, bound IgE ([3]; Assay Number 1, serum dog-1): 21 OD multiplied by 1000
OD, bound IgE ([3]; Assay Number 1, serum dog-2): 1490 OD multiplied by 1000
OD, bound IgE ([3]; Assay Number 1, serum dog-3): 2499 OD multiplied by 1000
OD, bound IgE ([3]; Assay Number 2, dog sera pool A 146): 199 OD multiplied by 1000
OD, bound IgE ([3]; Assay Number 2, dog sera pool KS338): 27 OD multiplied by 1000
reactivity: share of dog serum samples reactive to native Der f 1 proteins that are also reactive to the recombinant protein ([3]; Table 1, 3 dog serum samples): 100%
